# B1: AtSEP3 (…3), wild type, in pGADT7 [Arabidopsis thaliana] / AtAP1 (APETALA1), in pGBKT7 [Arabidopsis thaliana] (parent complex)
# chain 1: MGRGRVELKRIENKINRQVTFAKRRNGLLKKAYELSVLCDAEVALIIFSNRGKLYEFCSSSSMLRTLERYQKCNYGAPEPNVPSREALAVELSSQQEYLKLKERYDALQRTQRNLLGEDLGPLSTKELESLERQLDSSLKQIRALRTQFMLDQLNDLQSKERMLTETNKTLRLRLADGYQMPLQLNPNQEEVDHYGRHHHQQQQHSQAFFQPLECEPILQIGYQGQQDGMGAGPSVNNYMLGWLPYDTNSI
# chain 2: not shown
# Variants of: B1
# Test: yeast two-hybrid β-galactosidase activity assay; parent: 26; read off a plot
row,Variant,response
1,chain 1 L99A,~16 β-galactosidase units
2,chain 1 L115A,~13 β-galactosidase units
3,chain 1 L108A,~15 β-galactosidase units
4,chain 1 L120A,~8.7 β-galactosidase units
5,chain 1 L101A,~14 β-galactosidase units
6,chain 1 L116A,~11 β-galactosidase units

# Variants of: B1
# Test: yeast two-hybrid β-galactosidase activity assay; parent: 51; read off a plot
row,Variant,response
1,chain 1 L99A,~31 β-galactosidase units
2,"chain 1 L99A, chain 1 L101A, chain 1 L108A, chain 1 L115A",~25 β-galactosidase units
3,"chain 1 L99A, chain 1 L101A",~24 β-galactosidase units
4,"chain 1 L99A, chain 1 L101A, chain 1 L108A, chain 1 L115A, chain 1 L116A",~15 β-galactosidase units
5,"chain 1 L99A, chain 1 L101A, chain 1 L108A",~21 β-galactosidase units

# — publication PMC11955279 (2025)
